According to publication PMC8684725 (Molecular Biology of the Cell, 2021):

Legend:
crystal structure = biological target: the molecule itself; experiment: crystal structure
static light scattering = biological target: the molecule itself; experiment: static light scattering

B1: WNK1SA (WNK1/S382A), WNK1 (194-483) S382A, unphosphorylated kinase domain (domain or fragment)
chain: not shown
binding result (crystal structure): binds

B2: unphosphorylated kinase domain of WNK3, WNK3 (118-409) (domain or fragment)
chain: not shown
stoichiometry N (static light scattering): 2
